T1: S. cerevisiae TATA-box Binding Protein (yTBP) (S. cerevisiae, UniProt P13393)
T1 sequence: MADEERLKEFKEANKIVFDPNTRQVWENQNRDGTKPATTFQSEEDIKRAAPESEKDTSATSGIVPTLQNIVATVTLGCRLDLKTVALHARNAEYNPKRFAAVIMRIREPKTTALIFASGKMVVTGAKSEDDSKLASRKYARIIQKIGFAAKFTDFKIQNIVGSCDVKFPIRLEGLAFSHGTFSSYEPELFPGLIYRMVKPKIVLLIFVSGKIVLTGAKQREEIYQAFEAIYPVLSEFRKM


Legend:
[1] = molecular target: human TATA-box Binding Protein (hTBP) (human, UniProt P20226); assay: Far Western blot of the hydroxylapatite fraction probed with 35S-labelled human TBP
Method: (§1) The hydroxylapatite fraction was separated by SDS-PAGE and transferred to Immobilon-P membranes, and blocked in buffer T (0.2M KOAc) containing 0.01% (v/v) NP-40 and 4% BSA for 3 hr at room temperature followed by 2 hr at […]. ^35S-labeled yTBP and hTBP and its mutant derivatives (Ha, I. et al. Genes & Dev. 7, 1021–1032 (1993)) were synthesized in rabbit reticulocyte lysate and wheat germ extract, respectively, and were diluted in incubation buffer (buffer T (0.2) plus 0.01% (v/v) NP-40 and 0.5% BSA). […] The membrane was incubated with probe at […] for 14–18 min, twice in incubation buffer without BSA for 15 min, and rinsed in buffer T (0.2) lacking glycerol for 20 sec. The membrane was air dried, and exposed directly to film for 8–24 hr.
(§2) To identify this subunit, the yTAF complex was examined for TBP binding using an immobilized protein blotting ("Far Western") assay. The hydroxylapatite fraction was fractionated by SDS-PAGE, the polypeptides transferred to nitrocellulose, and the membrane probed with ^35S-labeled yTBP.

[2] = molecular target: T1, S. cerevisiae TATA-box Binding Protein …; assay: Far Western blot of the hydroxylapatite fraction probed with 35S-labelled yTBP
Method: as §1, §2

binding result [1]	binding result [2]	Binder
binds	binds	yeast TAF-145 (yTAF145), the 145 kD polypeptide of the yTAF complex (other) MVKQQGSGKTNLANEDEAYEAIFGGEFGSLEIGSYIGGDEGANSKDYTEHLPDAVDFEDEDELADDDDDLPEESDANLHPAMMTMGAYDDVNENGAVLGIDSNSLNMQLPEINGDLSQQFILEDDGGTPATSNALFMGMDANEIHLATETGVLDGSGANEIGHSQLSIGGVNGNDMSINGGFIMEPDMSDGKHKKATKLDLINHEKYLLKKYFPDFEKGKILKWNKLIYRRSVPYHWHSEISRVKKPFMPLNLKFKVQQDDKRLFNSRTISYVAPIYQGKNNLLQSNSSASRRGLIHVSIDELFPIKEQQKKRKIIHDEKTISEDLLIATDDWDQEKIINQGTSSTATLADSSMTPNLKFSGGYKLKSLIEDVAEDWQWDEDMIIDAKLKESKHAELNMNDEKLLLMIEKTNNLAQQKQQLDSSNLILPLNETILQQKFNLSNDDKYQILKKTHQTKVRSTISNLNIQHSQPAINLQSPFYKVAVPRYQLRHFHRENFGSHIRPGTKIVFSKLKARKRKRDKGKDVKESFSTSQDLTIGDTAPVYLMEYSEQTPVALSKRGMANKLINYYRKANEQDTLRPKLPVGETHVLGVQDKSPFWNFGFVEPGHIVPTLYNNMIRAPVFKHDISGTDFLLTKSSGFGISNRFYLRNINHLFTVGQTFPVEEIPGPNSRKVTSMKATRLKMIIYRILNHNHSKAISIDPIAKHFPDQDYGQNRQKVKEFMKYQRDGPEKGLWRLKDDEKLLDNEAVKSLITPEQISQVESMSQGLQFQEDNEAYNFDSKLKSLEENLLPWNITKNFINSTQMRAMIQIHGVGDPTGCGEGFSFLKTSMKGGFVKSGSPSSNNNSSNKKGTNTHSYNVAQQQKAYDEEIAKTWYTHTKSLSISNPFEEMTNPDEINQTNKHVKTDRDDKKILKIVRKKRDENGIIQRQTIFIRDPRVIQGYIKIKEQDKEDVNKLLEEDTSKINNLEELEKQKKLLQLELANLEKSQQRRAARQNSKRNGGATRTENSVDNGSDLAGVTDGKAARNKGKNTTRRCATCGQIGHIRTNKSCPMYSSKDNPASPK
	no binding	yeast TAF-90 (yTAF90), the 90 kD polypeptide of the yTAF complex (other) MSQKQSTNQNQNGTHQPQPVKNQRTNNAAGANSGQQPQQQSQGQSQQQGRSNGPFSASDLNRIVLEYLNKKGYHRTEAMLRAESGRTLTPQNKQSPANTKTGKFPEQSSIPPNPGKTAKPISNPTNLSSKRDAEGGIVSSGRLEGLNAPENYIRAYSMLKNWVDSSLEIYKPELSYIMYPIFIYLFLNLVAKNPVYARRFFDRFSPDFKDFHGSEINRLFSVNSIDHIKENEVASAFQSHKYRITMSKTTLNLLLYFLNENESIGGSLIISVINQHLDPNIVESVTAREKLADGIKVLSDSENGNGKQNLEMNSVPVKLGPFPKDEEFVKEIETELKIKDDQEKQLNQQTAGDNYSGANNRTLLQEYKAMNNEKFKDNTGDDDKDKIKDKIAKDEEKKESELKVDGEKKDSNLSSPARDILPLPPKTALDLKLEIQKVKESRDAIKLDNLQLALPSVCMYTFQNTNKDMSCLDFSDDCRIAAAGFQDSYIKIWSLDGSSLNNPNIALNNNDKDEDPTCKTLVGHSGTVYSTSFSPDNKYLLSGSEDKTVRLWSMDTHTALVSYKGHNHPVWDVSFSPLGHYFATASHDQTARLWSCDHIYPLRIFAGHLNDVDCVSFHPNGCYVFTGSSDKTCRMWDVSTGDSVRLFLGHTAPVISIAVCPDGRWLSTGSEDGIINVWDIGTGKRLKQMRGHGKNAIYSLSYSKEGNVLISGGADHTVRVWDLKKATTEPSAEPDEPFIGYLGDVTASINQDIKEYGRRRTVIPTSDLVASFYTKKTPVFKVKFSRSNLALAGGAFRP

From patent publication US5847077, “Fungal multisubunit protein complex critical for expression of fungal proteins” (University of Massachusetts Medical Center, dated 1998)
